Experimental data as given in the RNAGym collection of RNA variant scans (doi:10.7554/elife.90254).

B1: LINE1-full (parent)
chain: UACGUAGGUGGUUUUCCCCUGAUAGUGCUAAGGGGGCCUGGAAGUUUGGACUGGGCAGAGCUCAACACAGCGUGGCAAAGUGGCUGUGGCUAGACUGCCUCUCUGGAUUCCUCGUCACUCAGCAGGGCAUCUCUGAGAGAAAUGCC

Variants of: B1
Test: self-cleavage, relative activity (ratio to wild type); higher = more cleavage; in vitro, sequencing; the parent is a self-cleaving ribozyme

Q: For UACGUAGGUGGUUUUCCCCUGAUAGUGCUAAGGGGGCCUGGAAGUUUGGAAUGGGCAGAGCUCAACACAGCGUGGCAAAGUGGCUGUGGCUAGACUGCCUCUCUGGAAUCCUCGUCACUCAGCAGGGCAUCUCUGAGAGAAAUGCC [C51A U108A], which self-cleavage is on record?
A: Its self-cleavage is 1.31.

Q: For UACGUAGGUGGUUUUCCCCUGACAGUGCUAAGGGGGCCUGGAAGUUUGGACUGGGCAGAGCUCAACACAGCGUGGCAAAGUGGCUGUGGCUAGACUGCCUCUCUGGAUUCCUCGUCCCUCAGCAGGGCAUCUCUGAGAGAAAUGCC [U23C A117C], which self-cleavage is on record?
A: The self-cleavage was 1.51.

Q: With UACGUAGGUGGCUUUCCCCUGAUAGUGCUAAGGGGGCCUGGAAGUCUGGACUGGGCAGAGCUCAACACAGCGUGGCAAAGUGGCUGUGGCUAGACUGCCUCUCUGGAUUCCUCGUCACUCAGCAGGGCAUCUCUGAGAGAAAUGCC [U12C U46C] as the variant, how does the self-cleavage read?
A: The self-cleavage was 1.62.

Q: Which self-cleavage does the source give for UACGUAGGUGGUUUUCCCCGGAUAGUGCUAAGGGGGCCUGGAAGUUUGGACUGGGCAGAGCUCAACACAGCGUGGCAAAGUGGCCGUGGCUAGACUGCCUCUCUGGAUUCCUCGUCACUCAGCAGGGCAUCUCUGAGAGAAAUGCC [U20G U85C] here?
A: Its self-cleavage is 0.18.

Q: With UACGUAGGUGGUUUUCCCCUGAUAGUGCUCAGGGGGCCUGGAAGUUUGGACUGGGCAGAGCUCAACACAGCGUGGCAAAGUGGCUGUGGCUAGACUGCCUCUCUGGAUUCCUCGUCACUCGGCAGGGCAUCUCUGAGAGAAAUGCC [A30C A121G] as the variant, how does the self-cleavage read?
A: Its self-cleavage is 2.42.

Q: Which self-cleavage does the source give for UACGUAGGUGGUUUUCCCCUGAUAGCGCUAAGGGGGCCUGGAAGUUUGGACUGGGCAGAGCUCAACACAGCGUGGCAAAGUGGCUGUGGCUAGACUGCCUCUCUGGAUUCCUCGUCACUCAGCAGGGCAUCUCUGAGAGAAACGCC [U26C U143C] here?
A: Its self-cleavage is 1.07.

Q: For UACGUAGGUGGUUUUCCCCUGAUAGUGCUAAGGGGGCCUGGAAGUUUGGACUGGGCAGUGCUCAACACAGCGUGGCAAAGUGGCUGUGGCUAGACUGCCUCUCUGGAGUCCUCGUCACUCAGCAGGGCAUCUCUGAGAGAAAUGCC [A59U U108G], which self-cleavage is on record?
A: Its self-cleavage is 0.84.

Q: Which self-cleavage does the source give for UACGCAGGUGGUUUUCCCCUGAUAGUGCUAAGGGGGCCUGGAAGUUUGGACUGGGCAGAGCUCAACACAGCGUGGCAAAGUGGCUGUGGCUAGACUGCCUCUCUGGAUUCCUCGUCACUCAGCAGGGCCUCUCUGAGAGAAAUGCC [U5C A129C] here?
A: The self-cleavage was 1.69.

Q: Which self-cleavage does the source give for UACGUAGGUGGUUUUCCCCUGAUAGUGCUAAGGGGGCCUGGAAGUUUGGACUGGGCAGAGCUCAACACUGCGUGGCAAAGUGGCUGUGGCUAGACUGCCCCUCUGGAUUCCUCGUCACUCAGCAGGGCAUCUCUGAGAGAAAUGCC [A69U U100C] here?
A: The self-cleavage was 0.08.

Q: For UACGUAGGUGGUUUUCCCCUGAUAGUGCUAAGGGGGCCUGGAAGUUUGGACUGGGCAGAGCUCAACACAGCGUGGCGAAGUGGCUGAGGCUAGACUGCCUCUCUGGAUUCCUCGUCACUCAGCAGGGCAUCUCUGAGAGAAAUGCC [A77G U87A], which self-cleavage is on record?
A: Its self-cleavage is 0.09.

Q: Which self-cleavage does the source give for UACGUAGGUGGUUUUCCCCUGAUAGUGCUAAGGGGGCCCGGAAGUUUGGACUGGGCAGAGCUCAACACAGCGUGGCAAAGUGGCUGUGGCUAGACUGCCUCUCUGGAUUCCUCGUCACUCAGCAGGACAUCUCUGAGAGAAAUGCC [U39C G127A] here?
A: The self-cleavage was 1.03.

Q: With UACGUAGGUGGUUUACCCCUGAUAGUGCUAAGGGGGCCUGGAAGUUUGGACUGGGCAGAGCUCAACACAGCGUGGCAAAGUGGCUGUGGCUAGACUGCCUCUCUGGAUUCCUCGUCACUCAGCAGGGCAUCUCUGAGAGAAAUGCU [U15A C146U] as the variant, how does the self-cleavage read?
A: Its self-cleavage is 0.88.

Q: For UACGUAGGUGGUUUUCCCCUGAUAGUGCUAAGGGAGCCUGGAAGUUUGGACUGGGCAGAGCUCAACACAGCGUGGCAAAGUGGCUGUGGCUAGACUGCCUCUCUGGAUUCCUCGUCACUCAGCAGGGCAACUCUGAGAGAAAUGCC [G35A U130A], which self-cleavage is on record?
A: The self-cleavage was 1.1.

Q: For UACGUAGGUGGUAUUCCCCUGAUAGUGCUAAGGGGGCCUGGAAGUUUGGACUGGGCAGAGCUCAACACAGCGUGGCAAAGUGGCUGUGGCUAGACUGCCUCUCUGGAUUCCUCGUCACUCUGCAGGGCAUCUCUGAGAGAAAUGCC [U13A A121U], which self-cleavage is on record?
A: Its self-cleavage is 1.12.

Q: Which self-cleavage does the source give for UACGUAGGUGGUUUUCCCCUGAUAGUGCUAAGGGGGCCUGGAAGUUUGGACUGGGCAGAGCUCAACACAGCGCGGCAAAGUGGCUGUGGCUAGACUGCCUCUCUGGAUUCCUCGUCACUCAGCAGGGCAUCUCAGAGAGAAAUGCC [U73C U134A] here?
A: The self-cleavage was 1.54.

Q: Which self-cleavage does the source give for UACGUAGGUGGUUUUCCCCUGAUAGUGCUAAGGGGGCCUGGAAGUUUGGACUGGGCAGAGCUCAACACAGCGUGGCAAGGGGGCUGUGGCUAGACUGCCUCUCUGGAUUCCUCGUCACUCAGCAGGGCAUCUCUGAGAGAAAUGCC [A79G U81G] here?
A: The self-cleavage was 0.43.

Q: For UACGUAGGUGGUUUUCCCCUGAUAGUGCUAAGGGGGCCUGGAAGUUUGGACUGGGCAGAGCUCAACACAGCGUGGCAAAGUGGCUGUGGCUAGACUGCCUCUCUGGAUUCCUCGUCACUCAGCAGGACAUCUCUGAGGGAAAUGCC [G127A A138G], which self-cleavage is on record?
A: Its self-cleavage is 1.36.

Q: With UACGUAGGUGGUUUUCCCCUGAUAGUGCUAGGGGGGCCUGGAAGUUUGGACUGGGCAGAGCUCAACACAGCGUGGCAAAGUGGCUGUGGCUAGACUGCCUCUCUGGAUUCCUCGUCACUCAGCAGGGCAUCUCUGAGAGAAACGCC [A31G U143C] as the variant, how does the self-cleavage read?
A: Its self-cleavage is 1.04.

Q: For UACGUAGGUGGUUUUCCCCUGAUAGUGCUAAGGGGGCCUGGAGGUUUGGACUGGGCAGAGCUCAACACAGCGUGGCAAAGCGGCUGUGGCUAGACUGCCUCUCUGGAUUCCUCGUCACUCAGCAGGGCAUCUCUGAGAGAAAUGCC [A43G U81C], which self-cleavage is on record?
A: Its self-cleavage is 1.32.

Q: With UACGUAGGUGGUUUUCCCUUGAAAGUGCUAAGGGGGCCUGGAAGUUUGGACUGGGCAGAGCUCAACACAGCGUGGCAAAGUGGCUGUGGCUAGACUGCCUCUCUGGAUUCCUCGUCACUCAGCAGGGCAUCUCUGAGAGAAAUGCC [C19U U23A] as the variant, how does the self-cleavage read?
A: The self-cleavage was 1.1.
